Results on one molecule are retold here after US20040038888A1 (priority 2002, published 2004).

Experiment [1] relates to mouse adult neural stem cells. Put plainly: Intracellular ATP assay, adult mouse NSC, non-adherent culture. The experiment is classed as cell-based. The conditions noted are these: varying concentrations, non-adherent conditions, 3 days, relative to control, dose-dependent. On the procedure:
The anterior lateral wall of the lateral ventricle of 5-6 week old mice was enzymatically dissociated in 0.8 mg/ml hyaluronidase and 0.5 mg/ml trypsin in DMEM containing 4.5 mg/ml glucose and 80 units/ml DNase at 37° C. for 20 min. The cells were gently triturated and mixed with three volumes of Neurosphere medium (DMEM/F12, B27 supplement, 12.5 mM HEPES pH7.4) containing 20 ng/ml EGF (unless otherwise stated), 100 units/ml penicillin and 100μg/ml streptomycin. After passing through a 70 μm strainer, the cells were pelleted at 160×g for 5 min. The supernatant was subsequently removed and the cells resuspended in Neurosphere medium supplemented as above, plated out in culture dishes and incubated at 37° C. Neurospheres were ready to be split approximately 7 days after plating.
To split neurosphere cultures, neurospheres were collected by centrifugation at 160×g for 5 min. […]
Mouse neurospheres, cultured as described above, from passage 2, were seeded in DMEM/F12 supplemented with B27 into a 96-well plate as single cells (10000 cells/well) to the substances to be measured were added at the concentrations indicated. After 3 days incubation, intracellular ATP was measured using the ATP-SL kit from BioThema, Sweden, according to the manufacturer's instructions. […]

Another experiment has as its target T1, ADCYAP1R1 (Homo sapiens, UniProt P41586).
T1 sequence (P41586 21-468): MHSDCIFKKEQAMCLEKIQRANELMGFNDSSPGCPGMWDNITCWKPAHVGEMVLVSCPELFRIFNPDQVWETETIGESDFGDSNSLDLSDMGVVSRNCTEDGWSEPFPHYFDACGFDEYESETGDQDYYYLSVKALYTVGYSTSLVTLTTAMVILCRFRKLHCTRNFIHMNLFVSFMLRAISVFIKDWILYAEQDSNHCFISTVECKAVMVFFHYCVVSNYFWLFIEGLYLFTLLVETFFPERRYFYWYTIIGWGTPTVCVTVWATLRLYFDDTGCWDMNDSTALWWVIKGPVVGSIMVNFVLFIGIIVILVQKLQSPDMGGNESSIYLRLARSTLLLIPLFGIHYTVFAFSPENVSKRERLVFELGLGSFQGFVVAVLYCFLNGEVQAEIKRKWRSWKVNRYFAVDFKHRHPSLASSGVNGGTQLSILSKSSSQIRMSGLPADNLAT
The conditions noted are these: unlike PACAP, which binds ADCYAP1R1 and VIPR1 & 2; Moro and Lerner 1997; cited from earlier work.

B1: Maxadilan: 63 amino acid peptide from salivary gland extracts of the sand fly; specific ADCYAP1R1 agonist (SEQ ID NO: 13) (peptide, listed as Mus musculus)
chain: CDATCQFRKAIEDCRKKAHHSDVLQTSVQTTATFTSMDTSQLPGSGVFKECMKEKAKEFKAGK
With B1, the “intracellular ATP levels, and hence cell number” value in experiment [1] is on record as “statistically significant increase in intracellular ATP levels”. Also, in the experiment with ADCYAP1R1, the binding specificity entry is recorded as “binds specifically to only ADCYAP1R1”.
